Source: patent US20220125947A1 (published 2022)
Substitutions are numbered along the chain they refer to.

B1: VG9B417 (antibody, human IgG1, kappa)
heavy: not shown
light: DIVMTQSPSSVSASVGDRVTITCRASQGINSWLAWYQQKPGNAPKLLIYAASSLQSGVPSRFSGIGSGTDFIFTISSLQPEDFASYYCQQANSFPWTFGQGTKVEIKRTVAAPSVFIFPPSDEQLKSGTASVVCLLNNFYPREAKVQWKVDNALQSGNSQESVTEQDSKDSTYSLSSTLTLSKADYEKHKVYACEVTHQGLSSPVTKSFNRGEC
notes: IgG1, kappa; also called antibody #27
B2: VG9B58 (antibody, human IgG1, kappa, V domains shown)
VH: QVQLQESGPGLVKPSETLSLTCTVSGGSIKSSYWTWIRQPPGKGLEWIGYMFYLGSTNYNPSLKSRVTMSIDTSRNQFSLKLSSVTAADTAVYYCSRERPVLDAFDIWGQGTMVTVSS
VL: DIQMTQSPSAMSASVGDRVTITCRASQDITNYLAWFQQKPGKVPKRLIYAASSLQGGVPSRFSGSGSGTEFTLTISSLQPEDFSTYYCLQHDTYPYTFGQGTKVDIKR
notes: IgG1, kappa; also called antibody #28
B3: VG9B419 (antibody, human IgG1, kappa)
heavy: not shown
light: EIVLTQSPGTLSLSPGDRATLSCRASQSVASSYLAWYQQKPGQSPRLLIYGASSRATGIPDRFSGSGSGTDFTLTISRLEPEDFAVYYCQQYGSSPPYTFGQGTKVEIKRTVAAPSVFIFPPSDEQLKSGTASVVCLLNNFYPREAKVQWKVDNALQSGNSQESVTEQDSKDSTYSLSSTLTLSKADYEKHKVYACEVTHQGLSSPVTKSFNRGEC
notes: IgG1, kappa; also called antibody #29
B4: VG9B369 (antibody, human IgG1, kappa, V domains shown)
VH: EVQLLESGPTLVKPTQTLTLTCTFSGFSLSTIGVGVGWIRQPPGKALEWLSLIYWNDDKRYNPSLKSRLTITKDTSKNQVVLTMTNMDPVDTATYYCAHSHDWVHAFDIWGQGTMVTVSS
VL: DIVMTQSPSSLSASVGDRVTITCQASQDISHYLNWYQQKPGKAPKFLIYDASNLDTGVPSRFSGSGSGTDFTFTISSLQPEDIATYYCQQYDNFPLTFGGGTKVEIKR
notes: IgG1, kappa; specificity column: g/d constant
B5: VG9B144 (antibody, human IgG1, lambda, V domains shown)
VH: QVQLVQSGAEVKKPGASVKVSCKASGYTFTGYYMHWMRQAPGQGLEWMGWINPNSGATNKEQKFQGRVTMTRDTSISTAYMELSRLRSDDTAVYYCAREDDAFDVWGQGTMVTVSS
VL: SSELTQDPAVSVALGQTVRITCQGDNLRNYYATWFQQKPGQAPVLVFFGKNNRPSGIPDRFSGSSSGDTASLTITGAQAEDEADYYCNSRDSSGNHVVFGGGTKLTVLG
notes: IgG1, lambda; specificity column: g/d constant
B6: VG9B410 (antibody, human IgG1, kappa)
heavy: not shown
light: B1 light with V3Q
notes: as for B4
B7: VG9B386 (antibody, human IgG1, kappa, V domains shown)
VH: EVQLVESGGGLVKPGGSLRLSCAASGFTFSSYSMIWVRQAPGKGLEWVSSIGSSSTYIYYADSVRGRFTISRDNAKTSLYLQMNSLRAEDTAMYFCARDGETGGFDYWGQGILVTVSS
VL: EIVMTQSPGTLSLSPGERATLSCRASQSISRSYLAWYQQKPGQPPRLLIYGPSNRATGIPDRFSASGSGTDFTLTNSRLEPEDFAVYYCQQYGSLPLTFGGGTKVEIKR
notes: as for B4
B8: VG9B125 (antibody, human IgG1, kappa, V domains shown)
VH: EVQLVESGGTLVQPGGSLRLSCAVSGFTFSSYDMNWVRQAPGKGLEWVSYISSSSTAKYYADSVKGRFTISRDNAKNSLYLQMNSLWDEDTAVYYCAREDIVVVTPILQHWGQGTTVTVSS
VL: EIVMTQSPATLSLSPGERAILSCRASQSVSKDLAWYQQKPGQAPRLLIYDASNRATGIPARISGSGSGTDFTLTISSLEPEDFAVYYCQQRINWPLFTFGPGTKVEIKR
notes: as for B4
B9: VG9B112 (antibody, human IgG1, kappa, V domains shown)
VH: QVQLQQSGPGLVKPSQTLSLTCAISGDSVSSNSAAWNWIRQSPSRGLEWLGGTYYRSKWFNNYAVSVKSRITINPDTSTNQFSLQLNSVTPADTAVYYCARGEWGLRDAFDIWGQGTMVTVSS
VL: DIQMTQSPSFLSASVGDRVIITCRASQGIHSYLAWYQQKPGKVPKLLIYVASTLQSGVPSRFSGSGSGTEFTLTISSLQPEDFATYYCQQLNSYPWTFGQGTKLEIKR
notes: as for B4
B10: VG9B387 (antibody, human IgG1, lambda, V domains shown)
VH: EVQLVESGAEVKKPGASVKVSCKASGFTFTGYYLQWVRQAPGQGLEWMGWINPNSGYTDYAQRFQDRVTMTRDTSINTAYMELSRLRSDDTAVYYCARLDDAFDVWGQGTMVTVSS
VL: B5 VL with S2Y, N26S, T33I, F35Y, F47I, D68T, A77T, V97W
notes: as for B5
B11: VG9B47 (antibody, human IgG1, kappa, V domains shown)
VH: QVQLVQSGAEVKKPGSSVKVSCKASGGSFSNYAISWMRQAPGQGLEWMGGIIPFFGTPDYAQKFQGRVTITADKSTSTAYMELSSLRSEDTAVYYCSTGGGYGDYDYYYGINVWGQGTMVTVSS
VL: DIVMTQSPLSSPVDLGQPASISCRSSQSLVHSDGNTYLSWLQQRPGQPPRLLIYKISNRFSGVPDRFSGSGAGTDFTLKISRVEAEDVGVYYCMQAKEFPLTLGGGTKVDIKR
notes: as for B4
B12: VG9B379 (antibody, human IgG1, lambda, V domains shown)
VH: EVQLVQSGPEVKKPGASVKVSCKASGYTFTGDYIHWVRQVPGQGLEWMGWINPNSGGTNYAQKFQGRVTMTRDTSISTAFMELSRLRSDDTAVYYCAREGGVAPAAPDAFDIWGQGTMVTVSS
VL: B5 VL with N26S, N29S, T33R, F35Y, L45V, F47I, F48Y, D68N, V97R
notes: as for B5
B13: VG9B447 (antibody, human IgG1, lambda)
heavy: not shown
light: SYELTQPASVSGSPGQSITISCTGTSSDVGGYNYVSWYQQHPGKAPKLMIYEVSNRPSGVSNRFSGSKSGNTASLTISGLQAEDEADYYCSSYTSTSVVFGGGTKLTVLGQPKAAPSVTLFPPSSEELQANKATLVCLISDFYPGAVTVAWKADSSPVKAGVETTTPSKQSNNKYAASSYLSLTPEQWKSHRSYSCQVTHEGSTVEKTVAPTECS
notes: as for B5
B14: VG9B392 (antibody, human IgG1, lambda, V domains shown)
VH: QVQLVQSGAEVKRPGASAKVSCKTSGYTFTGYYIHWVRQAPGQGLEWMGWINPNSGYTNSAQKFQGRVSMTRDTSISTVYMELSRLRSDDTAVYYCAREDDAFDIWGQGTLVTVSS
VL: B5 VL with N26S, N29S, T33R, F35Y, F47I, F48Y, Q78L, S92N, L105V
notes: as for B5
B15: VG9B96 (antibody, human IgG1, kappa, V domains shown)
VH: EVQLVQSGAEVKKPGSSVKVSCKASGGTFSNYAISWVRLAPGQGLEWMGGIIPIFSAGTYAQRFQGRVTITADKSTSTAYMELNSLRSEDTAVYYCSSNSGTYYDYYYGMDVWGQGTMVTVSS
VL: B11 VL with P12H, D14T, S57F, F60L, E98Q, L103F, D110E
notes: as for B4
B16: VG9B77 (antibody, human IgG1, kappa, V domains shown)
VH: EVQLVESGAEVMKPGSSVKVSCKASGGTFSSYAISWVRQAPEQGLEWMGGIIPFFGTADYAQKFQGRVTITADKSTNTAYMELTSLRSEDTAVYYCATATVTTDYYYGMDVWGQGTMVTVSS
VL: B11 VL with D1E, S10F, D14T, K55E, S61T, K97R, E98Q, L103F, D110E
notes: as for B4

Assays:
[1] = target: T1, γδ T cell receptor on human γδ T cells (human); assay: flow cytometry, dose-response binding at 37 C on human γδ T cells
T1 construct: also called AG000003021 (γδ T cells)
Protocol: (§1) Binding of antibodies to human γδ T cells or SKW cell lines expressing Vγ9/Vδ2, Vγ9/Vδ2 or Vγ5/Vδ2 was carried out by flow cytometry. Briefly, the cells were centrifuged at 300×g for 5 minutes and the pellet was resuspended in 34 ml fresh media (in RPMI+10% FBS). 50 μL of the cells were then plated (44K cells/well) into assay plates. Samples were incubated for one hour at 37° C. in tissue culture (TC) incubator followed by wash steps by adding 100 μl FACS staining buffer. Secondary detention antibodies (A647 conjugated anti-human IgG Fc specific antibody (2 μg/mL) along with AF488 anti mouse CD3, clone OKT3 at 1 ug/mL) were added at 50 μL/well to appropriate wells according to the plate map. After incubating for 60 minutes at 37° C. in the TC incubator, cells were again washed as described above. This is followed by resuspension in 20 μL/well running buffer containing 1:1000 dilution of Sytox blue dead cell stain and the plates were run on iQue Screener.
(§2) Gating and data analysis: Human anti-human Vγ9 antibody (VG9B2 mAb at 10 nM) was used to mark the gating of positive population. All cells were first gated for singlets on SCS-A vs. SCS-H dot plot, live/dead followed by CD3 positive population, and this subset of CD3 positive population was gated for Vγ9 positive binding using positive control mAb. Cells were also assessed for cell binding of control mAbs by RL1 (A647) Geomeans from the live cell population. Advanced metrics were used and normalization metrics were chosen to calculate fold over background wells containing secondary antibody alone (designated as ‘background’ within ForeCyt settings).

[2] = target: T2, γδ T cell receptor on human γδ T cells (human); assay: flow cytometry DRC binding 37 C, human γδ T cells
T2 construct: whole, on cells; Target is the γδ TCR on a mixed population of human γδ T cells; also called AG000003021 (γδ T cells)
Protocol: as §1, §2

Binder	Max. Activity [1] [fold over background]	Max. Activity [2] [fold over background]
B1	2700	–
B2	2690	–
B3	2690	–
B4	–	2430
B5	–	2430
B6	–	2250
B7	–	2110
B8	–	1990
B9	–	1990
B10	–	1970
B11	–	1560
B12	–	1460
B13	–	1420
B14	–	1250
B15	–	1020
B16	–	772
